In article PMC6995573 one finds IC50 of inhibition of ODC enzyme activity by AZ and Kd data, which are given here for 24 substances.

As usually defined, the Kd is the free concentration of one partner at which half of the binding sites on the other are occupied at equilibrium, for simple one-to-one binding.

For the first assay, the target named is Human ornithine decarboxylase (human) (UniProt P11926).
Chain of Human ornithine decarboxylase (human) (P11926 2-421): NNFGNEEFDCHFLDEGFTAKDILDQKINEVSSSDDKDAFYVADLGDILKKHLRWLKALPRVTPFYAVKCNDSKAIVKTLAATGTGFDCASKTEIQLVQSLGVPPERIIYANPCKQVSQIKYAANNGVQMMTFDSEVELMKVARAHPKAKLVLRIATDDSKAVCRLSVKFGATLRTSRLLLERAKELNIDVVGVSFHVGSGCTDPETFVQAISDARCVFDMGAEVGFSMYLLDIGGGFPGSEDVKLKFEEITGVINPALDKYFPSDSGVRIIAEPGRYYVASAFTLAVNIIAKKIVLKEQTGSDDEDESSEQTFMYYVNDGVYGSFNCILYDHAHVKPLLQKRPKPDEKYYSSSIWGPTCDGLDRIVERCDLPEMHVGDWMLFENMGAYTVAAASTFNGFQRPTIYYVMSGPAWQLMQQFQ
Assay: not given
Turning to AZ3_A98D (natural protein), the IC50 of inhibition of ODC enzyme activity by AZ stood at 0.67 µM. The same measure, in the same setting: next, AZ3_D112K (natural protein): 0.55 µM; AZ3_D136G (natural protein): 0.72 µM. AZ3_D149P (natural protein) came in with an IC50 of inhibition of ODC enzyme activity by AZ of 2.05 µM. Substance AZ3_D179N (natural protein) returned an IC50 of inhibition of ODC enzyme activity by AZ of 0.45 µM. As for AZ3_G99D (natural protein), the IC50 of inhibition of ODC enzyme activity by AZ turned out to be 0.78 µM. AZ3_H129N (natural protein) returned an IC50 of inhibition of ODC enzyme activity by AZ of 0.67 µM. Turning to AZ3_K166Q (natural protein), the IC50 of inhibition of ODC enzyme activity by AZ was determined as 0.42 µM. Take AZ3_N100R (natural protein): the IC50 of inhibition of ODC enzyme activity by AZ stood at 0.66 µM. Same read-out and setting: the value for AZ3_N168R (natural protein) was 1.38 µM; that for AZ3_N175C (natural protein) was 0.65 µM; that for AZ3_N178K (natural protein) was 0.67 µM. The same measure, in the same setting: next, AZ3_Q150E (natural protein): 0.48 µM; AZ3_Q177H (natural protein): 1.34 µM; AZ3_R137G (natural protein): 1.23 µM.

In turn, AZ3_R138S (natural protein) returned an IC50 of inhibition of ODC enzyme activity by AZ of 0.81 µM. In turn, AZ3_S124D (natural protein) yielded an IC50 of inhibition of ODC enzyme activity by AZ of 0.5 µM. On the same count and under the same terms, next, AZ3_S127R (natural protein): 1.02 µM.

For AZ3_S171H (natural protein), the IC50 of inhibition of ODC enzyme activity by AZ amounted to 0.43 µM.

Consider AZ3_T106E (natural protein), for which the IC50 of inhibition of ODC enzyme activity by AZ turned out to be 1.21 µM. Same read-out and setting: the value for AZ3_T126K (natural protein) was 0.7 µM; that for AZ3_Y145G (natural protein) was 0.98 µM.

For a further assay the target is unchanged.
Assay: not given
The source holds these as a separate data set.
Substance “AZ3_S124D/Q150E/K166Q/D179N (natural protein)” displayed an IC50 of inhibition of ODC enzyme activity by AZ of 0.25 µM. In turn, “AZ3_S124D/Q150E/K166Q/S171H/D179N (natural protein)” registered an IC50 of inhibition of ODC enzyme activity by AZ of 0.29 µM.

A further assay shares this target. The experiment in a line: AUC; sedimentation velocity, 20 °C, 30 mM Tris-HCl pH 7.4, 25 mM NaCl; ODC fixed at 0.3 mg/mL, AZ 0.02-0.19 mg/mL (AZ/ODC molar ratio 0.25 to 3); all data sets fitted to the AB hetero-association model in SEDPHAT.
On to “AZ3_S124D/Q150E/K166Q/D179N (natural protein)”, for which the Kd worked out at 0.5 µM.

For “AZ3_S124D/Q150E/K166Q/S171H/D179N (natural protein)”, the Kd amounted to 0.14 µM.
